Source: patent US20240352134A1 (NANJING IMMUNOPHAGE BIOTECH, published 2024)
Changes are numbered by the printed parent chain. Blank lines part the entries; values can stand above or below the binder they belong to.

Tests used:
human CCR8 [1] = target: T1, human CCR8 (human, UniProt P51685 1-355); experiment: FACS on human CCR8-expressing 293F cells
T1 construct: whole, on cells; also called hCCR8; C-C Motif Chemokine Receptor 8

human CCR8 [2] = target: T1, human CCR8; experiment: FACS on human CCR8-expressing 293F cells; remark: listed apart in the source
human CCR8 [3] = target: T1, human CCR8; experiment: FACS as in Example 2; T0 (the reference itself)
human CCR8 [4] = target: T1, human CCR8; experiment: cell-based or functional assay
human CCR8 [5] = target: T1, human CCR8; experiment: FACS as in Example 2; antibody after 40° C. 4 W; ratio to T0
human CCR8 [6] = target: T1, human CCR8; experiment: FACS as in Example 2; antibody after Freeze/thaw 5FT; ratio to T0
human CCR8 [7] = target: T1, human CCR8; experiment: cell-based or functional assay; remark: listed apart in the source
human CCR8 [8] = target: T1, human CCR8; experiment: FACS as in Example 2; antibody after 40° C. 2 W; ratio to T0
human CCR8 [9] = target: T1, human CCR8; experiment: FACS as in Example 2; antibody after 40° C. 1 W; ratio to T0
human CCR8 [10] = target: T1, human CCR8; experiment: FACS as in Example 2; antibody after Oxidation 24 h; ratio to T0
human CCR8 [11] = target: T1, human CCR8; experiment: binding affinity EC50, comparison of Table 12 (FACS on CCR8-expressing cells)

T1 sequence (P51685 whole entry): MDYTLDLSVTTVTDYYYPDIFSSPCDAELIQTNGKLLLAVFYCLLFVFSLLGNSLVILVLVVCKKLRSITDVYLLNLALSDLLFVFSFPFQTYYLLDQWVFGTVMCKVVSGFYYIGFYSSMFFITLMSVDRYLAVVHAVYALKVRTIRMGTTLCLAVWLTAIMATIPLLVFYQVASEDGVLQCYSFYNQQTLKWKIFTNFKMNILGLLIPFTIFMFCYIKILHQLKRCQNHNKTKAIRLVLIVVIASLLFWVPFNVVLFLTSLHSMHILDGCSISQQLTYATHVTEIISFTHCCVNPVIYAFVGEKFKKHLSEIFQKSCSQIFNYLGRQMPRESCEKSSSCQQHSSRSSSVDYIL

B3: 3O20hz2 (antibody, V domains shown)
VH: EVQLVESGGGLVQPGGSLKLSCATSGFSFNAYAMNWVRQASGKGLEWVGRIRSKSNNYATYYAASVKGRFTISRDDSKTTLYLQMNSLKTEDTAVYYCVRGGYHGNSAYFDVWGQGTLVTVSS
VL: DIVMTQSPLSLPVTPGEPASISCRSSKSLLHSNGNTYLYWFLQKPGQSPQLLIYRMSNLASGVPDRFSGSGSGTDFTLKISRVEAEDVGVYYCLQHLEYPFTFGQGTKLEIK
notes: Humanized variant of 3O20
EC50 (human CCR8 [2]): 0.135 nM
Affinity EC50 (nM) Ratio (human CCR8 [3]): 1
Calcium mobilization IC50 (nM) Ratio; 40° C. 1 W (human CCR8 [4]): 3.02
Calcium mobilization IC50 (nM) Ratio; 40° C. 2 W (human CCR8 [4]): 0.98
Calcium mobilization IC50 (nM) Ratio; 40° C. 4 W (human CCR8 [4]): 1.86
Calcium mobilization IC50 (nM) Ratio; Freeze/thaw 5FT (human CCR8 [4]): 1.37
Calcium mobilization IC50 (nM) Ratio; Oxidation 24 h (human CCR8 [4]): 1.42
Calcium mobilization IC50 (nM) Ratio; T0 (human CCR8 [4]): 1
Affinity EC50 (nM) Ratio (human CCR8 [5]): 1.65
Affinity EC50 (nM) Ratio (human CCR8 [6]): 1.22
Calcium mobilization IC50 (human CCR8 [7]): 7.39 nM
Affinity EC50 (nM) Ratio (human CCR8 [8]): 1.14
Affinity EC50 (nM) Ratio (human CCR8 [9]): 0.79
Affinity EC50 (nM) Ratio (human CCR8 [10]): 2.13

B6: 3F11hz0 (antibody, V domains shown)
VH: EVQLVESGGGLVQPKGSLKLSCAASGFSFNTYAMNWVRQAPGKGLEWVARIRSKSNYYATYYADSVKDRFTISRDDSESMLYLQMNNLKTEDTAMYYCVRGRELGDYYAMDYWGQGTSVTVSS
VL: DIVMTQAAPSVPVTPGESVSISCRSSKSLLHSNGNTYLYWFLQRPGQSPQLLIYRMSNLASGVPNRFSGSGSGTAFTLRISRVEAEDVGVYYCMQHLEYPFTFGSGTKLEIK
notes: same VH and VL as mouse 3F11
EC50 (human CCR8 [2]): 0.309 nM

B7: 3O20hz0 (antibody, V domains shown)
VH: B3 VH with G15K, S41P, A64D, T80I, S87T, V95I, Q115T, L118S
VL: B6 VL with N65D, M94L
notes: same VH and VL as mouse 3O20
EC50 (human CCR8 [2]): 0.185 nM

B8: 1G17hz3 (antibody, V domains shown)
VH: QVQLVQSGAEVKKPGASVKVSCKASGYTFADYEMHWVRQAPGQGLEWMGAIDPETGRTAYAQKFQGRVTMTADRSTSTAYMELSSLRSEDTAVYYCTRRAYWGGWGQGTLVTVSS
VL: DVVMTQSPLSLPVTLGQPASISCRSSQSLVHSSGNTYLHWYQQRPGQSPRLLIYKVSNRFSGVPDRFSGSGSGTDFTLKISRVEAEDVGVYFCSQSTHVPYTFGQGTKLEIK
notes: Humanized variant of 1G17
EC50 (human CCR8 [2]): 0.47 nM
Affinity EC50 (nM) Ratio (human CCR8 [3]): 1
Calcium mobilization IC50 (nM) Ratio; 40° C. 1 W (human CCR8 [4]): 3.07
Calcium mobilization IC50 (nM) Ratio; 40° C. 2 W (human CCR8 [4]): 1.38
Calcium mobilization IC50 (nM) Ratio; 40° C. 4 W (human CCR8 [4]): 2.35
Calcium mobilization IC50 (nM) Ratio; Freeze/thaw 5FT (human CCR8 [4]): 0.32
Calcium mobilization IC50 (nM) Ratio; Oxidation 24 h (human CCR8 [4]): 1.14
Calcium mobilization IC50 (nM) Ratio; T0 (human CCR8 [4]): 1
Affinity EC50 (nM) Ratio (human CCR8 [5]): 1.1
Affinity EC50 (nM) Ratio (human CCR8 [6]): 2.43
Calcium mobilization IC50 (human CCR8 [7]): 25.3 nM
Affinity EC50 (nM) Ratio (human CCR8 [8]): 1.31
Affinity EC50 (nM) Ratio (human CCR8 [9]): 0.91
Affinity EC50 (nM) Ratio (human CCR8 [10]): 1.71

B9: 1G17hz0 (antibody, V domains shown)
VH: QVQLQQSGAELVRPGASVTLSCKASGYTFADYEMHWVKQTPVLGLEWIGAIDPETGRTAYNQKFKFKATLTADRSSSTAYMELRSLTSEDSAVYYCTRRAYWGGWGQGTTLTVSS
VL: B8 VL with S7T, T14S, Q17D, P18Q, Q42L, R44K, R50K, V88L, Q105G
notes: same VH and VL as mouse 1G17
EC50 (human CCR8 [2]): 0.451 nM

B10: TPP-23411 (antibody, V domains shown)
VH: EVQLLESGGGLVQPGGSLRLSCAASGFTFSSYGMHWVRQAPGKGLEWVSAINWNGGSTGYADSVKGRFTISRDNSKNTLYLQMNSLRAEDTAVYYCARGHHSGYDGRFFDYWGQGTLVTVSS
VL: QSVLTQPPSVSGAPGQRVTISCTGSSSNIGAGYNVHWYQQLPGTAPKLLIYTNNRRPSGVPDRFSGSKSGTSASLAISGLRSEDEADYYCAAWDASLSGWVFGGGTKLTVLG
EC50 (human CCR8 [11]): 0.65 nM

Results, then the binder that gave them:

binding result (human CCR8 [1]): binds
B1: 3F11hz1 (antibody, V domains shown)
VH: EVQLVESGGGLVQPGGSLKLSCAASGFSFNTYAMHWVRQASGKGLEWVGRIRSKSNYYATYYAASVKGRFTISRDDSKNTAYLQMNSLKTEDTAVYYCTRGRELGDYYAMDYWGQGTLVTVSS
VL: B3 VL with Y39D, F41Y, L59R, L94M
notes: Humanized variant of 3F11

binding result (human CCR8 [1]): binds
B2: 3F11hz3 (antibody, V domains shown)
VH: B1 VH with S28T, N30S, H35N, A64D, G68D, T99V
VL: B3 VL with Y39D, L94M
notes: Humanized variant of 3F11

binding result (human CCR8 [1]): binds
B4: 3F11hz6 (antibody, V domains shown)
VH: B1 VH with H35N, T99V
VL: B3 VL with N33S, Y39D, L59R, L94M
notes: Humanized variant of 3F11

binding result (human CCR8 [1]): binds
B5: 3F11hz5 (antibody, V domains shown)
VH: B1 VH with H35N, T99V
VL: B3 VL with Y39E, F41Y, L59R, L94M
notes: Humanized variant of 3F11
